Reference: patent US20180066015A1, “INHIBITORS OF GROWTH FACTOR ACTIVATION ENZYMES” (Washington University, published 2018)
Starred links: 1 amine or outer side, 2 acyl side, 3 side chain; linkers in the order of their positions; H or OH if unused. Non-standard residues stand in square brackets, D forms with d. No end group written: not given here. *: point of attachment. Kbt‑6‑CONH = ketobenzothiazole-6-CONH (amide link to Val), O=C(c1ccc2nc([*:1])sc2c1)[*:2]; kbt = C-terminal ketobenzothiazole, c1ccc2sc(*)nc2c1; His(π-Bom) = N[C@@H](Cc1cncn1COCc1ccccc1)C(=O)O; Fmoc = O=C(OCC1c2ccccc2-c2ccccc21)*; cmk = not defined here

How the values were obtained:
[1] = target: Hepatocyte Growth Factor Activator (HGFA) serine protease domain, N-terminal His-tag, recombinant (Homo sapiens (Human)) (UniProt Q04756)
[2] = target: Hepatocyte Growth Factor Activator (HGFA) serine protease domain, N-terminal His-tag, recombinant (Homo sapiens (Human)) (UniProt Q04756); assay: fluorogenic inhibition assay
[3] = target: Recombinant human hepsin (4776-SE-010, R&D Systems), activated (human, UniProt P05981); assay: fluorogenic inhibition assay
Protocol: (§1) Inhibitors (11-pt serial dilutions, 0-20 μM final concentration in reaction) were serially diluted in DMSO (2% DMSO final concentration) and then mixed with either recombinant serine protease domain of HGFA [Z. Han, P. K. Harris, D. E. Jones, R. Chugani, T. Kim, M. Agarwal, W. Shen, S. A. Wildman, J. W. Janetka, Acs Med Chem Lett 2014, 5, 1219-1224], matriptase (Charles Craik, UCSF) or hepsin* (#4776-SE-010, R&D Systems, Minneapolis, Minn.) in black 384 well plates (Corning #3575. Corning, N.Y.). […] The final substrate concentrations for all assays were at the Kₘ for the respective enzymes. Changes in fluorescence (excitation at 380 nm and emission at 460 nm) were measured at room temperature over time in a Biotek Synergy 2 plate reader (Winnoski, Vt.). Using GraphPad Prism version 6.04 software program, (GraphPad Software, San Diego, Calif., www.graphpad.com), a four parameter curve fit was used to determine the inhibitor IC₅₀s from a plot of the mean reaction velocity versus the inhibitor concentration. The IC₅₀ values represent the average of three separate experimental determinations.
(§2) Fluorescent inhibitor and chromogenic proteolytic assays were performed in general accordance with the procedures described in Example 4 for compounds prepared in Examples 5 and 6.

[4] = target: T1, matriptase (Charles Craik, UCSF), recombinant (Homo sapiens (Human), UniProt Q9Y5Y6); assay: fluorogenic inhibition assay
T1 sequence: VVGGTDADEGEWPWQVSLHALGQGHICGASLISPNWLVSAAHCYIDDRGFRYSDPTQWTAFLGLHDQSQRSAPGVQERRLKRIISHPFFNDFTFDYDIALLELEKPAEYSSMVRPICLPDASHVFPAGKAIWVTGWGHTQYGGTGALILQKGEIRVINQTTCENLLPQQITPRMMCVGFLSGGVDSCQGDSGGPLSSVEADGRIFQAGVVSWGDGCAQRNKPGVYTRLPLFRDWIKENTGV
Protocol: as §1, §2

Factor Xa = assay: selectivity inhibition assay
recombinant thrombin = assay: selectivity inhibition assay
Trypsin = assay: selectivity inhibition assay

Ac-SKLdR-kt (peptide)
IC50 of enzyme inhibition [1]: 6310 nM

H-KQLR(SEQ ID NO: 1)-Kt (peptide)
IC50 of enzyme inhibition [1]: 440 nM

Ac-WKLdR-kt (peptide)
IC50 of enzyme inhibition [1]: 6500 nM

Ac-RQLdR-kt (peptide)
IC50 of enzyme inhibition [1]: 3120 nM

Ac-KHLdR-kt (peptide)
IC50 of enzyme inhibition [1]: 10900 nM

Ac-SHLdR-kt (peptide)
IC50 of enzyme inhibition [1]: 21200 nM

Ac-SdRLdR-kt (peptide)
IC50 of enzyme inhibition [1]: 11900 nM

Ac-SKFdR-kt (peptide)
IC50 of enzyme inhibition [1]: 10800 nM

Ac-SdRLR-kt (peptide)
IC50 of enzyme inhibition [1]: 1420 nM

Ac-KQLdR-kt (peptide)
IC50 of enzyme inhibition [1]: 5530 nM

H-KQLdR-kt (peptide)
IC50 of enzyme inhibition [1]: 11300 nM

Ac-SRLdR-kt (peptide)
IC50 of enzyme inhibition [1]: 2240 nM

Ac-KQFdR-kt (peptide)
IC50 of enzyme inhibition [1]: 7820 nM

Ac-WQLdR-kt (peptide)
IC50 of enzyme inhibition [1]: 7120 nM

Fmoc-Ser-Arg-kbt [Fmoc-SR-kbt]
Ki [2]: > 20000 nM | Ki [3]: 886 nM | Ki [4]: 90 nM

Fmoc-Ala-Arg-kbt [Fmoc-AR-kbt]
Ki [2]: 7980 nM | Ki [3]: 272 nM | Ki [4]: 0.5 nM

Fmoc-Tyr-Arg-kbt [Fmoc-YR-kbt]
Ki [2]: 2960 nM | Ki [3]: 217 nM | Ki [4]: 332 nM

H-[dW]-Phe-Arg-{kbt-OH} [H-dWFR-kbt-COOH]
Ki [2]: 981 nM | Ki [3]: 1.41 nM | Ki [4]: 232 nM

{Cy5.5}-KRLR-kbt [Cy5.5-KRLR(SEQ ID NO: 8)-kbt]
Ki [2]: 608 nM | Ki [3]: 3.89 nM | Ki [4]: 87.5 nM

Fmoc-Ile-Arg-kbt [Fmoc-IR-kbt]
Ki [2]: 6470 nM | Ki [3]: 297 nM | Ki [4]: 657 nM

Fmoc-Lys-Arg-kbt [Fmoc-KR-kbt]
Ki [2]: > 20000 nM | Ki [3]: 159 nM | Ki [4]: 0.2 nM

{Cy5.5}-KRLR-cmk (reading uncertain) [Cy5.5-KRLR(SEQ ID NO: 8)-cmk]
Ki [2]: 34.1 nM | Ki [3]: 324 nM | Ki [4]: 172 nM

Fmoc-Met-Arg-kbt [Fmoc-MR-kbt]
Ki [3]: 490 nM | Ki [4]: 62.1 nM

Fmoc-Arg-Arg-kbt [Fmoc-RR-kbt]
Ki [2]: 8630 nM | Ki [3]: 99.9 nM | Ki [4]: 2 nM

Fmoc-Val-Arg-kbt [Fmoc-VR-kbt]
Ki [2]: 4630 nM | Ki [3]: 314 nM | Ki [4]: 1490 nM

Ac-KRLR-{Kbt‑6‑CONH-Val-NH2} [Ac-KRLR(SEQ ID NO: 8)-Kbt-Val-NH2]
Ki [2]: 5.83 nM | Ki (Factor Xa): 17 nM | Ki (recombinant thrombin): 1560 nM | Ki [3]: 0.227 nM | Ki [4]: 7.42 nM

Fmoc-Gly-Arg-kbt [Fmoc-GR-kbt]
Ki [2]: 9380 nM | Ki [3]: 831 nM | Ki [4]: 0.1 nM

Fmoc-Asn-Arg-kbt [Fmoc-NR-kbt]
Ki [2]: > 20000 nM | Ki [3]: 1.92 nM | Ki [4]: 84.1 nM

H-Trp-Leu-Arg-{kbt-OH} [H-WLR-kbt-COOH]
Ki [2]: 1380 nM | Ki [3]: 446 nM

H-Trp-Leu-Arg-kbt [H-WLR-kbt]
Ki [2]: 104 nM | Ki (Factor Xa): 532 nM | Ki (recombinant thrombin): 457 nM | Ki (Trypsin): 0.05 nM | Ki [3]: 1.52 nM

Fmoc-Leu-Arg-kbt [Fmoc-LR-kbt]
Ki [2]: 450 nM | Ki (Factor Xa): 410 nM | Ki (recombinant thrombin): 995 nM | Ki (Trypsin): 19.8 nM | Ki [3]: 115 nM | Ki [4]: 425 nM

Fmoc-Glu-Arg-kbt [Fmoc-ER-kbt]
Ki [2]: > 20000 nM | Ki [3]: 338 nM | Ki [4]: 8.4 nM

Fmoc-His-Arg-kbt [Fmoc-HR-kbt]
Ki [2]: 6360 nM | Ki [3]: 268 nM | Ki [4]: 66.7 nM

Fmoc-Asp-Arg-kbt [Fmoc-DR-kbt]
Ki [2]: > 20000 nM | Ki [3]: 233 nM | Ki [4]: 398 nM

B1: Ac-WLFR(SEQ ID NO: 20)-Kbt (peptide)
peptide: Ac-WLFR-kbt
SMILES: CC(=O)N[C@@H](Cc1c[nH]c2ccccc12)C(=O)N[C@@H](CC(C)C)C(=O)N[C@@H](Cc1ccccc1)C(=O)N[C@@H](CCCNC(=N)N)C(=O)c1nc2ccccc2s1
Ki [2]: 133 nM | Ki (Factor Xa): 1 nM | Ki (recombinant thrombin): > 20000 nM | Ki [3]: 0.347 nM | Ki [4]: 5.96 nM

H-[dW]-Leu-Arg-{kbt-OH} [H-dWLR-kbt-COOH]
Ki [2]: 346 nM | Ki [3]: 136 nM

B2: H-His(Bom)-dWLR-kbt (peptide)
peptide: H-[His(π-Bom)][dW]LR-kbt
SMILES: CC(C)C[C@H](NC(=O)[C@@H](Cc1c[nH]c2ccccc12)NC(=O)[C@@H](N)Cc1cncn1COCc1ccccc1)C(=O)N[C@@H](CCCNC(=N)N)C(=O)c1nc2ccccc2s1
Ki [2]: 2280 nM | Ki [3]: 1.13 nM | Ki [4]: 1500 nM

Fmoc-Phe-Arg-kbt [Fmoc-FR-kbt]
Ki [2]: 964 nM | Ki (Factor Xa): 28.4 nM | Ki (recombinant thrombin): > 2000 nM | Ki (Trypsin): 14.3 nM | Ki [3]: 778 nM | Ki [4]: 1280 nM

B3: H-His(Bom)-WLR-kbt (peptide)
peptide: H-[His(π-Bom)]WLR-kbt
SMILES: CC(C)C[C@H](NC(=O)[C@H](Cc1c[nH]c2ccccc12)NC(=O)[C@@H](N)Cc1cncn1COCc1ccccc1)C(=O)N[C@@H](CCCNC(=N)N)C(=O)c1nc2ccccc2s1
Ki [2]: 3710 nM | Ki [3]: 2.08 nM | Ki [4]: 1550 nM

Fmoc-Trp-Arg-kbt [Fmoc-WR-kbt]
Ki [2]: 3200 nM | Ki [3]: 411 nM | Ki [4]: 824 nM

H-[dW]-Phe-Arg-kbt [H-dWFR-kbt]
Ki [2]: 2250 nM | Ki [3]: 370 nM

Fmoc-Gln-Arg-kbt [Fmoc-QR-kbt]
Ki [2]: 6830 nM | Ki [3]: 170 nM | Ki [4]: 1.6 nM

H-Leu-Leu-Arg-{kbt-Val-NH2} [H-LLR-kbt-Val-NH2]
Ki [2]: 82.1 nM | Ki (Factor Xa): 159 nM | Ki (recombinant thrombin): 101 nM | Ki (Trypsin): 0.61 nM | Ki [3]: 0.88 nM

H-Trp-Phe-Arg-kbt [H-WFR-kbt]
Ki [2]: 5680 nM | Ki [3]: 240 nM

H-Arg-Leu-Arg-kbt [H-RLR-kbt]
Ki [2]: 83.1 nM | Ki (Factor Xa): 56 nM | Ki (recombinant thrombin): 8200 nM | Ki (Trypsin): 0.13 nM | Ki [3]: 0.5 nM

Fmoc-Pro-Arg-kbt [Fmoc-PR-kbt]
Ki [2]: > 20000 nM | Ki [3]: 776 nM | Ki [4]: 40.4 nM

Ac-KRLR (not fully specified (C-terminus); also: benzyl COOH at 3 or 4 (tables differ)) [Ac-KRLR(SEQ ID NO: 8)-kbt-Benzyl-3-COOH]
Ki [2]: 3.33 nM | Ki (recombinant thrombin): 1620 nM | Ki [3]: 0.3 nM | Ki [4]: 3.6 nM

Fmoc-Thr-Arg-kbt [Fmoc-TR-kbt]
Ki [2]: > 20000 nM | Ki [3]: 437 nM | Ki [4]: 1220 nM

H-[dW]-Leu-Arg-kbt [H-dWLR-kbt]
Ki [2]: 128 nM | Ki [3]: 3.58 nM
